Data on four molecules can be found in patent publication US7387779B2, “Anti-angiogenic proteins and fragments and methods of use thereof” (Beth Israel Deaconess Medical Center, priority 1998, dated 2008).

The test system of one assay is MLEC β3+/+. The assay is described as follows: Protein synthesis and cap-dependent translation in wild-type mouse lung endothelial cells. In kind it is cell-based. The settings on record: 4.5 μM; rapamycin 100 ng/ml. The text has this:
Therefore, to evaluate the effect of tumstatin peptides on cap-dependent and independent translation, endothelial cells were isolated from lungs of 12-week-old mice that were deficient in the expression of αvβ3 integrin (i.e., 3 integrin-deficient mice), and also their wild-type counterparts (Hodivala-Dilke, K. M. et al., 1999, J. Clin. Invest. 103:229-38). Briefly, ICAM-2 expressing MLEC were enriched using rat anti-mouse ICAM-2 (# 01800D, PharMingen, San Diego, Calif., USA) conjugated to magnetic beads (Dynabeads M-450, Dynal, Oslo, Norway). MLEC were maintained in 40% Ham's F-12,40% DME-Low Glucose, 20% FBS supplemented with heparin, endothelial mitogen (Biomedical Technologies, Inc., Cambridge, Mass., USA), glutamine and penicillin/streptomycin. Wild-type and β3-integrin-deficient mouse embryonic fibroblasts were prepared (Hodivala-Dilke, K. M. et al., 1999, J. Clin. Invest. 103:229-38). MEFs were maintained in DMEM containing 10% FBS. MLEC were characterized for homogeneity by morphological observations and by immunofluorescence staining for endothelial-specific markers. Cells between passage 3 and 6 were used for the experiments.

The test system of the next assay is C-PAE cells. The assay is described as follows: BrdU incorporation proliferation assay. Type of assay: cell-based, bovine. The settings on record: 0-2.0 μM. The protocol:
The anti-proliferative affect of Tumstatin-44-131 on C-PAE cells was examined via BrdU incorporation assay. This assay uses bromodeoxyuridine (BrdU) instead of ^3H-thymidine as a thymidine analog. BrdU is incorporated into newly synthesized DNA strands in actively proliferating cells. The BrdU incorporated into the cells can then be detected immunochemically. The assay was conducted using the BrdU proliferation assay kit (CalbioChem, San Diego, Calif., USA) according to the manufacturer's instructions, with some modifications. C-PAE cells were seeded onto 96-well plates in DMEM containing 10% FCS. The next day, the medium was replaced with DMEM containing 2% FCS with or without E. Coli-expressed Tumstatin-44-131, or full-length Tumstatin expressed in 293 cells. The plates were then incubated for 46 hours, and the cells were then pulsed for two hours with 10 nM BrdU. The cells and DNA were then fixed to the wells, reacted with anti-BrdU primary and secondary antibodies, and then developed with a calorimetric reaction supplied with the kit. The plates were then read at OD450 on a plate reader (Molecular Dynamics, Sunnyvale, Calif., USA).

The next assay has as its system PC-3 cells. The assay is described as follows: Proliferation of control cells, 3H-thymidine incorporation. Type of assay: cell-based, human. The conditions noted are these: non-endothelial control; Canstatin up to 40 mg/ml, Tumstatin up to 20 mg/ml. The method, then:
(§1) C-PAE cells were grown to confluence in DMEM with 10% fetal calf serum (FCS) and kept contact inhibited for 48 hours. Control cells were 786-O (renal carcinoma) cells, PC-3 cells, HPEC cells, and A-498 (renal carcinoma) cells. Cells were harvested with trypsinization (Life Technologies/Gibco BRL, Gaithersburg, Md., USA) at 37° C. for five minutes. […] The cells were incubated for 24 hours at 37° C. with 5% CO2 and 95% humidity. Medium was removed and replaced with DMEM containing 0.5% FCS and 3 ng/ml bFGF (R&D Systems, Minneapolis, Minn., USA). Unstimulated controls received no bFGF. […] All wells received 1 μCurie of ^3H-thymidine at the time of treatment. After 24 hours, medium was removed and the wells were washed with PBS. Cells were extracted with 1N NaOH and added to a scintillation vial containing 4 ml of ScintiVerse II (Fisher Scientific, Pittsburgh, Pa., USA) solution. Thymidine incorporation was measured using a scintillation counter. The results are shown in FIGS. 3A and 3B, which are a pair of graphs showing incorporation of ^3H-thymidine into C-PAE cells treated with varying amounts of Arresten (FIG. 3A) or endostatin (FIG. 3B). Arresten appeared to inhibit thymidine incorporation in C-PAE as well as did endostatin. Behavior of control cells treated with Arresten and endostatin is also shown in FIG. 4A, 4B, 4C, and 4D, with Arresten having little effect on 786-O cells (FIG. 4A), PC-3 cells (FIG. 4B), or HPEC cells (FIG. 4C). Endostatin had little effect on A-498 cells (FIG. 4D). All groups in FIGS. 3 and 4 represent triplicate samples. […] (C-PAE) cells were grown to confluence in DMEM with 10% fetal calf serum (FCS) and kept contact inhibited for 48 hours. Cells were harvested by trypsinization (Life Technologies/Gibco BRL, Gaithersberg, Md., USA) at 37° C. for 5 minutes. […] The cells were incubated for 24 hours at 37° C. C. with 5% CO2 and 95% humidity. Medium was removed, and replaced with DMEM containing 0.5% FCS (unstimulated) or 10% FCS (stimulated and treated cells). 786-O, PC-3 and HEK 293 cells served as controls and were also grown to confluency, trypsinized and plated in the same manner. Cells were treated with concentrations of Canstatin or endostatin ranging from 0.025 to 40 mg/ml in triplicate. In thymidine incorporation experiments, all wells received […] of ^3H-thymidine at the time of treatment. After 24 hours, medium was removed and the wells were washed 3 times with PBS. Radioactivity was extracted with 1N NaOH and added to a scintillation vial containing 4 ml of ScintiVerse II (Fisher Scientific, Pittsburgh, Pa., USA) solution. Thymidine incorporation was measured using a scintillation counter. […]

For assay [1], the system named is 786-O (renal carcinoma) cells. The description is as above. In kind it is cell-based, human. The conditions noted are these: non-endothelial control; Canstatin up to 40 mg/ml, Tumstatin up to 20 mg/ml. The protocol: as §1

B1: Tumstatin: NC1 domain of the α3 chain of type IV collagen, residues 1-244 (SEQ ID NO:10) (protein, listed as Homo sapiens)
chain: GLKGKRGDSGSPATWTTRGFVFTRHSQTTAIPSCPEGTVPLYSGFSFLFVQGNQRAHGQDLGTLGSCLQRFTTMPFLFCNVNDVCNFASRNDYSYWLSTPALMPMNMAPITGRALEPYISRCTVCEGPAIAIAVHSQTTDIPPCPHGWISLWKGFSFIMFTSAGSEGTGQALASPGSCLEEFRASPFLECHGRGTCNYYSNSYSFWLASLNPERMFRKPIPSTVKAGELEKIISRCQVCMKKRH
Consider B1, for which, in the assay with MLEC β3+/+, the “protein synthesis / cap-dependent translation in control (β3+/+) endothelial cells” value is recorded as “inhibited protein synthesis”. The “incorporation of BrdU” value with C-PAE cells was “decreased incorporation of BrdU”. In addition, the effect on proliferation entry (in the assay on PC-3 cells; in assay [1]) was “no significant anti-proliferative effect” throughout.

B2: endostatin: tumor associated angiogenesis inhibitor used as comparator (protein, UniProt P39060 1572-1754, looked up)
Endostatin: HSHRDFQPVLHLVALNSPLSGGMRGIRGADFQCFQQARAVGLAGTFRAFLSSRLQDLYSIVRRADRAAVPIVNLKDELLFPSWEALFSGSEGPLKPGARIFSFDGKDVLRHPTWPQKSVWHGSDPNGRRLTESYCETWRTEAPSATGQASSLLGGRLLGQSAASCHHAYIVLCIENSFMTASK
modifications: Endostatin
Take B2: the “protein synthesis / cap-dependent translation in control (β3+/+) endothelial cells” value in the assay with MLEC β3+/+ is reported as “did not exhibit this property”.

B3: Canstatin: NC1 domain of the α2 chain of Type IV collagen (SEQ ID NO:6) (protein, listed as Homo sapiens)
chain: VSIGYLLVKHSQTDQEPMCPVGMNKLWSGYSLLYFEGQEKAHNQDLGLAGSCLARFSTMPFLYCNPGDVCYYASRNDKSYWLSTTAPLPMMPVAEDEIKPYISRCSVCEAPAIAIAVHSQDVSIPHCPAGWRSLWIGYSFLMHTAAGDEGGGQSLVSPGSCLEDFRATPFIECNGGRGTCHYYANKYSFWLTTIPEQSFQGSPSADTLKAGLIRTHISRCQVCMKNL
For the molecule B3, the effect on proliferation result (in the assay on PC-3 cells; in assay [1]) was “No significant effect” in each case.

B4: Tumstatin-44-131: residues 44 to 131 of full-length Tumstatin (SEQ ID NO:33) (protein)
chain: FSFLFVQGNQRAHGQDLGTLGSCLQRFTTMPFLFCNVNDVCNFASRNDYSYWLSTPALMPMNMAPITGRALEPYISRCTVCEGPAIAI
modifications: Tumstatin-45-132 (amino acids 45-132 of SEQ ID NO10)
For the molecule B4, the “incorporation of BrdU” value in the assay on C-PAE cells was “decreased incorporation of BrdU”.
